From publication PMC9557730 (2022) come the findings set out here.

The chains are these.
B1: N-terminal 3×-FLAG-tagged p52 (WT) [human] / p34 [human (endogenous in HEK293T)] (parent complex)
chain 1: MESTPSRGLNRVHLQCRNLQEFLGGLSPGVLDRLYGHPATCLAVFRELPSLAKNWVMRMLFLEQPLPQAAVALWVKKEFSKAQEESTGLLSGLRIWHTQLLPGGLQGLILNPIFRQNLRIALLGGGKAWSDDTSQLGPDKHARDVPSLDKYAEERWEVVLHFMVGSPSAAVSQDLAQLLSQAGLMKSTEPGEPPCITSAGFQFLLLDTPAQLWYFMLQYLQTAQSRGMDLVEILSFLFQLSFSTLGKDYSVEGMSDSLLNFLQHLREFGLVFQRKRKSRRYYPTRLAINLSSGVSGAGGTVHQPGFIVVETNYRLYAYTESELQIALIALFSEMLYRFPNMVVAQVTRESVQQAIASGITAQQIIHFLRTRAHPVMLKQTPVLPPTITDQIRLWELERDRLRFTEGVLYNQFLSQVDFELLLAHARELGVLVFENSAKRLMVVTPAGHSDVKRFWKRQKHSS
chain 2: MVSDEDELNLLVIVVDANPIWWGKQALKESQFTLSKCIDAVMVLGNSHLFMNRSNKLAVIASHIQESRFLYPGKNGRLGDFFGDPGNPPEFNPSGSKDGKYELLTSANEVIVEEIKDLMTKSDIKGQHTETLLAGSLAKALCYIHRMNKEVKDNQEMKSRILVIKAAEDSALQYMNFMNVIFAAQKQNILIDACVLDSDSGLLQQACDITGGLYLKVPQMPSLLQYLLWVFLPDQDQRSQLILPPPVHVDYRAACFCHRNLIEIGYVCSVCLSIFCNFSPICTTCETAFKISLPPVLKAKKKKLKVSA
B2: C-terminal 3× FLAG-tagged WT Tfb2 [Saccharomyces cerevisiae] / Ssl2 [S. cerevisiae (endogenous in yeast)] (parent complex)
chain 1: MSDYSLKHSVTQYLEEIPQQVQNRLYTSPATCLAIYRILPPLAKFFIMAMVFNENEVPLLDLDKWVNSNGKLQFQNAIKSMKSLHLLIPNKSSGTLMINLNPTFKISLRNALTGGEVQNSFGVVVEENVVSLDLLDEYSANKWETILHFMVGTPLAKIPSEKVLNLLKHSKLMEEVNSTGEFKITNEGFQFLLQEINSQLWTLLLQYLKMIETSKMDLVDVLHFIFMLGALEVGKAYKIDALSETQRIMLQDMRDYGLVFQKHSNDSIFYPTKLALMLTSDTKTIRSASNAMDSVLRQNREEPSVNEDGANGKSTTDITTSDDLNKAGLKNQDIPDGSLIVETNFKIYSYSNSPLQIAVLSLFVHLKARFVNMVLGQITRESIRRALTNGITADQIIAYLETHAHPQMRRLAEEKLEKKLELDPNCKEPLQVLPPTVVDQIRLWQLELDRVITYEGSLYSDFETSQEYNLLSKYAQDIGVLLWKDDKKKKFFISKEGNSQVLDFAKRKLKKKQ
chain 2: MTDVEGYQPKSKGKIFPDMGESFFSSDEDSPATDAEIDENYDDNRETSEGRGERDTGAMVTGLKKPRKKTKSSRHTAADSSMNQMDAKDKALLQDTNSDIPADFVPDSVSGMFRSHDFSYLRLRPDHASRPLWISPSDGRIILESFSPLAEQAQDFLVTIAEPISRPSHIHEYKITAYSLYAAVSVGLETDDIISVLDRLSKVPVAESIINFIKGATISYGKVKLVIKHNRYFVETTQADILQMLLNDSVIGPLRIDSDHQVQPPEDVLQQQLQQTAGKPATNVNPNDVEAVFSAVIGGDNEREEEDDDIDAVHSFEIANESVEVVKKRCQEIDYPVLEEYDFRNDHRNPDLDIDLKPSTQIRPYQEKSLSKMFGNGRARSGIIVLPCGAGKTLVGITAACTIKKSVIVLCTSSVSVMQWRQQFLQWCTLQPENCAVFTSDNKEMFQTESGLVVSTYSMVANTRNRSHDSQKVMDFLTGREWGFIILDEVHVVPAAMFRRVVSTIAAHAKLGLTATLVREDDKIGDLNFLIGPKLYEANWMELSQKGHIANVQCAEVWCPMTAEFYQEYLRETARKRMLLYIMNPTKFQACQFLIQYHERRGDKIIVFSDNVYALQEYALKMGKPFIYGSTPQQERMNILQNFQYNDQINTIFLSKVGDTSIDLPEATCLIQISSHYGSRRQEAQRLGRILRAKRRNDEGFNAFFYSLVSKDTQEMYYSTKRQAFLVDQGYAFKVITHLHGMENIPNLAYASPRERRELLQEVLLKNEEAAGIEVGDDADNSVGRGSNGHKRFKSKAVRGEGSLSGLAGGEDMAYMEYSTNKNKELKEHHPLIRKMYYKNLKK
B3: N-terminal 3×-FLAG-tagged p52 (WT) [human] / p8 [human (endogenous in HEK293T)] (parent complex)
chain 1: B1 chain 1
chain 2: MVNVLKGVLIECDPAMKQFLLYLDESNALGKKFIIQDIDDTHVFVIAELVNVLQERVGELMDQNAFSLTQK
B4: N-terminal 3×-FLAG-tagged p52 (WT) [human] / XPB [human (endogenous in HEK293T)] (parent complex)
chain 1: B1 chain 1
chain 2: MGKRDRADRDKKKSRKRHYEDEEDDEEDAPGNDPQEAVPSAAGKQVDESGTKVDEYGAKDYRLQMPLKDDHTSRPLWVAPDGHIFLEAFSPVYKYAQDFLVAIAEPVCRPTHVHEYKLTAYSLYAAVSVGLQTSDITEYLRKLSKTGVPDGIMQFIKLCTVSYGKVKLVLKHNRYFVESCHPDVIQHLLQDPVIRECRLRNSEGEATELITETFTSKSAISKTAESSGGPSTSRVTDPQGKSDIPMDLFDFYEQMDKDEEEEEETQTVSFEVKQEMIEELQKRCIHLEYPLLAEYDFRNDSVNPDINIDLKPTAVLRPYQEKSLRKMFGNGRARSGVIVLPCGAGKSLVGVTAACTVRKRCLVLGNSAVSVEQWKAQFKMWSTIDDSQICRFTSDAKDKPIGCSVAISTYSMLGHTTKRSWEAERVMEWLKTQEWGLMILDEVHTIPAKMFRRVLTIVQAHCKLGLTATLVREDDKIVDLNFLIGPKLYEANWMELQNNGYIAKVQCAEVWCPMSPEFYREYVAIKTKKRILLYTMNPNKFRACQFLIKFHERRNDKIIVFADNVFALKEYAIRLNKPYIYGPTSQGERMQILQNFKHNPKINTIFISKVGDTSFDLPEANVLIQISSHGGSRRQEAQRLGRVLRAKKGMVAEEYNAFFYSLVSQDTQEMAYSTKRQRFLVDQGYSFKVITKLAGMEEEDLAFSTKEEQQQLLQKVLAATDLDAEEEVVAGEFGSRSSQASRRFGTMSSMSGADDTVYMEYHSSRSKAPSKHVHPLFKRFRK

Variants of B1 are the subject of one assay. The experiment in a line: FLAG-IP LC–MS (iBAQ); HEK293T nuclear extracts; n = 3, biological replicates; read off a plot.
As for chain 1 E310F, the response was roughly 0.64 Normalized Log2 iBAQ.

As to chain 1 E310A, chain 1 R314A, the response was roughly 0.67 Normalized Log2 iBAQ.

With chain 1 Y316A, chain 1 Y318A, the response is roughly 0.67 Normalized Log2 iBAQ.

Consider chain 1 R337A, chain 1 F338A, for which the response was roughly 0.73 Normalized Log2 iBAQ.

In the next assay the parent is B2. In words: FLAG IP and Western blot; whole-cell extracts; FLAG-tagged Tfb2 variants coexpressed with endogenous Tfb2; two biological replicates; read off a plot.
For the variant chain 1 E342F, the response is roughly 0.085 Western Signal/Tfb2-FLAG.

On to chain 1 I396A, chain 1 I397A, for which the response was roughly 0.38 Western Signal/Tfb2-FLAG.

As to chain 1 Q395A, chain 1 I396A, chain 1 I397A, the response is roughly 0.35 Western Signal/Tfb2-FLAG.

Consider chain 1 L339A, chain 1 I340A, chain 1 V341A, for which the response was roughly 0.11 Western Signal/Tfb2-FLAG.

Take chain 1 I378A, chain 1 T379A, chain 1 R380A: the response is roughly 0.21 Western Signal/Tfb2-FLAG.

chain 1 G390A, chain 1 I391A, chain 1 T392A: the response was roughly 0.2 Western Signal/Tfb2-FLAG.

Regarding chain 1 Y348A, chain 1 Y350A, the response is roughly 0.19 Western Signal/Tfb2-FLAG.

chain 1 E342R, chain 1 K346E: the response was roughly 0.11 Western Signal/Tfb2-FLAG.

In the case of chain 1 L360A, chain 1 L362A, chain 1 F363A, the response is roughly 0.17 Western Signal/Tfb2-FLAG.

For chain 1 I378A, chain 1 T379A, the response was roughly 0.29 Western Signal/Tfb2-FLAG.

Turning to chain 1 D439A, chain 1 E447A, chain 1 R450A, the response was roughly 0.58 Western Signal/Tfb2-FLAG.

On to chain 1 R369A, chain 1 F370A, for which the response was roughly 0.07 Western Signal/Tfb2-FLAG.

Regarding chain 1 Y399A, chain 1 L400A, the response is roughly 0.28 Western Signal/Tfb2-FLAG.

As to chain 1 F370A, the response is roughly 0.085 Western Signal/Tfb2-FLAG.

Take chain 1 E447K: the response is roughly 0.5 Western Signal/Tfb2-FLAG.

With chain 1 I347A, chain 1 Y348A, chain 1 Y350A, the response is roughly 0.14 Western Signal/Tfb2-FLAG.

Consider chain 1 I347A, chain 1 Y348A, for which the response was roughly 0.23 Western Signal/Tfb2-FLAG.

In the next assay the parent is B3. The experiment in a line: FLAG-IP LC–MS (iBAQ); HEK293T nuclear extracts; n = 3, biological replicates; read off a plot.
Consider chain 1 Y316A, chain 1 Y318A, for which the response is roughly 0.83 Normalized Log2 iBAQ.

As for chain 1 R337A, chain 1 F338A, the response is roughly 0.84 Normalized Log2 iBAQ.

With chain 1 E310A, chain 1 R314A, the response was roughly 0.83 Normalized Log2 iBAQ.

As to chain 1 E310F, the response was roughly 0.86 Normalized Log2 iBAQ.

Variants of B4 are the subject of another assay. The experiment in a line: FLAG-IP–Western; HEK293T nuclear extracts; n = 3, biological replicates; read off a plot.
As to chain 1 E310F, the response was roughly 0.01 Normalized Western Signal.

Regarding chain 1 Y316A, chain 1 Y318A, the response is roughly 0.02 Normalized Western Signal.

For the variant chain 1 R337A, chain 1 F338A, the response is roughly 0.03 Normalized Western Signal.

For chain 1 E310A, chain 1 R314A, the response is roughly 0.13 Normalized Western Signal.

In a further assay the parent is B4. The experiment in a line: FLAG-IP LC–MS (iBAQ); HEK293T nuclear extracts; n = 3, biological replicates; read off a plot.
As for chain 1 E310F, the response is roughly 0.57 Normalized Log2 iBAQ.

As for chain 1 Y316A, chain 1 Y318A, the response was roughly 0.63 Normalized Log2 iBAQ.

Turning to chain 1 R337A, chain 1 F338A, the response is roughly 0.67 Normalized Log2 iBAQ.

On to chain 1 E310A, chain 1 R314A, for which the response was roughly 0.78 Normalized Log2 iBAQ.
